Source: publication PMC10154332, “Mirror proteorhodopsins” (Communications Chemistry, 2023)

Experiments:
[1] = molecular target: Sphingomonas paucimobilis rhodopsin (SpaR) (Sphingomonas paucimobilis); test: crystal structure; in meso (monoolein) crystals, 0.78 M NaH2PO4/K2HPO4 pH 5.2, 22 °C; space group C2; 2.8 Å
[2] = molecular target: Sphingomonas paucimobilis rhodopsin (SpaR) (Sphingomonas paucimobilis); test: SEC; DDM-solubilized SpaR at five pH values (4.4, 5.4, 6.4, 7.4, 8.4); at pH 4.4 only a single trimer peak, further peaks of higher molecular weight with increasing pH
[3] = molecular target: Sphingomonas paucimobilis rhodopsin (SpaR) (Sphingomonas paucimobilis); test: SAXS; solubilized SpaR ~5 mg/ml in 100 mM NaCl, 0.5 mM EDTA, 0.01% NaN3, 20 mM TRIS(HCl) pH 7.2, 0.05% DDM; profile 0.04-0.26 1/A fitted with MEMPROT (detergent corona), trimer against monomer model
[4] = molecular target: T1, SpaR (Sphingomonas paucimobilis rhodopsin) (Sphingomonas paucimobilis, UniProt A0A411LJN5); test: X-ray crystallography, in meso crystals, […] A; assay type: binding; settings: covalent Schiff base to K211; crystals at pH 5.2
T1 construct: gene HKX06_19670; E. coli C41(DE3) codon-optimised gene in pET32b (NdeI/XhoI), C-terminal His tag, DDM-solubilised, Ni-NTA and SEC; trimer
T1 sequence (A0A411LJN5 1-237): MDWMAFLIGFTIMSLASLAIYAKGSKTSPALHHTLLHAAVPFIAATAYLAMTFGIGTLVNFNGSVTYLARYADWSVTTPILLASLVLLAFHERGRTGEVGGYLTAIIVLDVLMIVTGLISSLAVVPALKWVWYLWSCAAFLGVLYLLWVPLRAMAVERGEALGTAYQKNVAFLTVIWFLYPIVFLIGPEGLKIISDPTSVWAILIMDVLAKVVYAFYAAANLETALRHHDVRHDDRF

[5] = molecular target: Asp97 (UniProt position 97, …); settings: cited from earlier work
Asp73 (position 73, …) = test: UV-vis; settings: 150 mM NaCl, 50 mM MES, Dark (ground) state, DDM-solubilised

“Sphingomonas paucimobilis rhodopsin (SpaR) (natural protein)” gave a stoichiometry N [1] of 3, a stoichiometry N [2] of 3 and a stoichiometry N [3] of 3.

In the case of `CC1=C(/C=C/C(C)=C/C=C/C(C)=C/C=O)C(C)(C)CCC1` [retinal], the “X-ray crystallography, in meso crystals, 2.8 A” value [4] is reported as “the retinal co-factor is covalently bound to the K211 residue of the helix G”.

B1: Green proteorhodopsin (PR) (uncultured marine gamma proteobacterium (printed as 'Gamma-proteobacterium')) (protein)
chain: MKLLLILGSVIALPTFAAGGGDLDASDYTGVSFWLVTAALLASTVFFFVERDRVSAKWKTSLTVSGLVTGIAFWHYMYMRGVWIETGDSPTVFRYIDWLLTVPLLICEFYLILAAATNVAGSLFKKLLVGSLVMLVFGYMGEAGIMAAWPAFIIGCLAWVYMIYELWAGEGKSACNTASPAVQSAYNTMMYIIIFGWAIYPVGYFTGYLMGDGGSALNLNLIYNLADFVNKILFGLIIWNVAVKESSNA
In the case of B1, the pKa [5] is given as 7.68.

B2: SpaR (Sphingomonas paucimobilis rhodopsin, mirror proteorhodopsin) (Sphingomonas paucimobilis) (protein)
chain: MDWMAFLIGFTIMSLASLAIYAKGSKTSPALHHTLLHAAVPFIAATAYLAMTFGIGTLVNFNGSVTYLARYADWSVTTPILLASLVLLAFHERGRTGEVGGYLTAIIVLDVLMIVTGLISSLAVVPALKWVWYLWSCAAFLGVLYLLWVPLRAMAVERGEALGTAYQKNVAFLTVIWFLYPIVFLIGPEGLKIISDPTSVWAILIMDVLAKVVYAFYAAANLETALRHHDVRHDDRF
For B2, the pKa (Asp73 (position 73, …); 5 mM ZnCl2, in the presence of 5 mM Zn2+) was 0.98±0.01 and the pKa (Asp73 (position 73, …); no Zn2+) was 1.03±0.01.
